Here are results for one substance from patent publication US7534431.

This assay deals with carcinoembryonic antigen (CEA) (UniProt P06731). Briefly: size-exclusion HPLC shift of radioiodinated bispecific conjugate in the presence of excess CEA. (In general: SEC sorts molecules by how far they enter the pores of the column.)
UniProt P06731, sequence (P06731 35-685 limits assumed): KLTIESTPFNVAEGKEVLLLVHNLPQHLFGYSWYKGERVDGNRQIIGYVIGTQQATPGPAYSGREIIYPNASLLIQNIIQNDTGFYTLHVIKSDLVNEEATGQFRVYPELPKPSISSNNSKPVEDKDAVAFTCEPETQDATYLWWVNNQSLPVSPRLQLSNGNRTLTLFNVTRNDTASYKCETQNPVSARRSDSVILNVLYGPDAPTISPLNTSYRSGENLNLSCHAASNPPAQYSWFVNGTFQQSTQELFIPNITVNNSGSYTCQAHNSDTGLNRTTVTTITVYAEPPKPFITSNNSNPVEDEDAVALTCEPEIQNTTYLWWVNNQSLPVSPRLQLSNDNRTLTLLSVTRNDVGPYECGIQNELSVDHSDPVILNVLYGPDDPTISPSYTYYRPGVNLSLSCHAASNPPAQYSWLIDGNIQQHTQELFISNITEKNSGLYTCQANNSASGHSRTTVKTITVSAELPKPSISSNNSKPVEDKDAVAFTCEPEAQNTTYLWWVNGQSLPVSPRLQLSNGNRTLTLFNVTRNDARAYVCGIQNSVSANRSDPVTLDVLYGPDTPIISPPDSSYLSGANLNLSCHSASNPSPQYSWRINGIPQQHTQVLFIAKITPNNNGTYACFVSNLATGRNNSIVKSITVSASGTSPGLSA

With “hMN-14×734 bispecific antibody (Fab' of humanized anti-CEA hMN-14 coupled to Fab' of murine anti-indium-DTPA 734)”, the immunoreactivity (fraction of radioiodinated sample shifted by excess CEA) is over 85%.
